{
  "source": "patent US20080134370A1",
  "about": "“Novel Altered Gene from Rice Anthranilic Acid Synthase Gene Oasa2 and Use Thereof” (priority 2005, published 2008)",
  "key": {"[1]": {"system": "rice anthranilate synthase (OASA2 protein)", "assay": "Enzyme Activity Measurement 1: anthranilate synthase activity with 100 mM NH4Cl as amide group donating substrate", "type": "biochemical", "settings": "without tryptophan, FIG. 1 and FIG. 2", "protocol": "(§1) The OASA2 protein synthesized by the wheat embryo acellular system was quantified using rabbit anti-OASA2 antibody that had been prepared based on the peptide fragment with the sequence at position 161 to 175 (MDHEKGKVTEQVVDD) of the amino acid sequence of OASA2 protein. A refined sample of OASA2 protein was also used for the quantification. Western blot analysis was performed according to the method of Towbin et al. (Towbin, H., Staehelin, T. and Gordon, J. 1979. Electrophoretic transfer of proteins from polyacrylamide gels to nitrocellulose sheets: procedure and some applications. Proc Natl Acad Sci USA 76: 4350-4354). The estimated quantity of OASA2 protein was used for the correction of enzyme activity, as will be described later.\nThe OASA2 protein, which is the α subunit of rice anthranilate synthase catalyzes the reaction producing anthranilate from chorismate, using ammonia that originates in the amide group of glutamine supplied by the β subunit.\n(§2) As is known, activity of OASA2 protein is under the feedback inhibition by tryptophan. It is therefore necessary to eliminate tryptophan in the protein synthesis reaction mixture, and replace the environment of the expressed protein with a buffer component for AS activity measurement. To this end, the protein synthesis reaction mixture was replaced with buffer A (50 mM Tris-HCl, pH7.6; 0.05 mM EDTA; 2 mM MgCl2; 0.05 mM DTT; 5% glycerol), using Microspin G-25 columns (Amersham Biosciences)<\n(§3) Ninety μl of reaction solution (20 mM Tris-HCl, pH 8.3; 100 mM NH4Cl; 0.5 mM chorismate; 10 mM MgCl2) was supplemented with 2.5 μl of crude extract exchanged with buffer, and the reaction mixture was allowed to react for 1 hour at 32° C. The reaction was stopped by adding 10 μl of 1N HCl, and synthesized anthranilate was extracted with 300 μl of ethyl acetate. The yield of anthranilate was measured with Wallac 1420 ARVOsx-FL (Perkin-Elmer Life Sciences Japan. Co., Ltd.) at the excitation wavelength of 355 nm/fluorescence (emission) 460 nm. […]"}, "[2]": {"system": "rice anthranilate synthase (OASA2 protein)", "assay": "Enzyme Activity Measurement 2: anthranilate synthase activity in reaction system using the β subunit of rice anthranilate synthase (glutamine)", "type": "biochemical", "protocol": "as §1, §2\nas §3, with “5” for “100”, “glutamine; 0.2 to 0.8” for “NH4Cl; 0.5”, “C. The preparation of rice anthranilate synthase β subunit and quantification of the product by the Western blot method were performed according to the method of Kanno et al. (Kanno et al. (2004) Plant Molecular Biology 54, 11-22)” for “C.”"}, "[3]": {"system": "Yeast TRP2 gene defective mutant strains", "assay": "Free tryptophan content in yeast TRP2 gene defective mutant strains expressing OASA2 gene", "type": "cell-based", "source_text": "Yeasts with a defective TRP2 gene, analogous to OASA2 gene, require tryptophan for growth. It can therefore be said that TRP2 activity is complemented by OASA2 gene if OASA2 gene introduced into the yeast allows for growth without tryptophan. Further, the activity of mutant OASA2 gene can be assayed by causing the yeast to express the mutant OASA2 gene having resistance to tryptophan feedback inhibition and by measuring accumulation of free tryptophan in the organism.\nExpression vectors were constructed by performing PCR with the primers below. […] As described above, the N terminus region of the OASA2 protein includes a chloroplast transit signal, and as such the primers were designed to exclude the signal sequence in the product of expression, as in the Split-PCR primers described in Section (2) above. […]\nThe yeast transformant was separated into single colonies on synthetic complete agar medium (0.67% amino acid-less bactoyeast nitrogen base, uracil-free 0.2% dropout mixture, 2% bactoagar) supplemented with 2% glucose. […] The preparation was then applied to a high-performance liquid chromatography (HPLC) device (the product of Waters, Waters Alliance HPLC FLD System 2695) and free tryptophan content was measured. For HPLC, a Xterra RP18 column (4.6×150 mm) (Waters) was used, and detection of tryptophan was made at the excitation wavelength 278 nm/fluorescence wavelength 348 nm."}},
  "data": [
    {"molecule": "N351D: mutant OASA2 protein, substitution of asparatate residue for asparagine residue at position 351 (protein, UniProt Q9XJ29 50-606, looked up, variant N351D) Anthranilate synthase alpha …: CSAGKPEASAVINGSAAARAAEEDRRRFFEAAERGSGKGNLVPMWECIVSDHLTPVLAYRCLVPEDNMETPSFLFESVEQGPEGTTNVGRYSMVGAHPVMEVVAKEHKVTIMDHEKGKVTEQVVDDPMQIPRSMMEGWHPQQIDQLPDSFTGGWVGFFSYDTVRYVEKKKLPFSGAPQDDRNLPDVHLGLYDDVLVFDNVEKKVYVIHWVNLDRHATTEDAFQDGKSRLNLLLSKVHNSNVPKLSPGFVKLHTRQFGTPLNKSTMTSDEYKNAVMQAKEHIMAGDIFQIVLSQRFERRTYADPFEVYRALRIVNPSPYMAYVQARGCVLVASSPEILTRVRKGKIINRPLAGTVRRGKTEKEDEMQEQQLLSDEKQCAEHIMLVDLGRNDVGKVSKPGSVKVEKLMNIERYSHVMHISSTVSGELDDHLQSWDALRAALPVGTVSGAPKVKAMELIDELEVTRRGPYSGGLGGISFDGDMLIALALRTIVFSTAPSHNTMYSYKDTERRREWVAHLQAGAGIVADSSPDDEQRECENKAAALARAIDLAESAFVDKE", "values": [
      {"measurement": "enzyme activity (anthranilate yield) compared with wild type", "setting": "[1]", "value": "improved enzyme activity over the wild type"}
    ]},
    {"molecule": "L530D: mutant OASA2 protein, substitution of asparatate residue for leucine residue at position 530 (protein, UniProt Q9XJ29 50-606, looked up, variant L530D) Anthranilate synthase alpha …: CSAGKPEASAVINGSAAARAAEEDRRRFFEAAERGSGKGNLVPMWECIVSDHLTPVLAYRCLVPEDNMETPSFLFESVEQGPEGTTNVGRYSMVGAHPVMEVVAKEHKVTIMDHEKGKVTEQVVDDPMQIPRSMMEGWHPQQIDQLPDSFTGGWVGFFSYDTVRYVEKKKLPFSGAPQDDRNLPDVHLGLYDDVLVFDNVEKKVYVIHWVNLDRHATTEDAFQDGKSRLNLLLSKVHNSNVPKLSPGFVKLHTRQFGTPLNKSTMTSDEYKNAVMQAKEHIMAGDIFQIVLSQRFERRTYANPFEVYRALRIVNPSPYMAYVQARGCVLVASSPEILTRVRKGKIINRPLAGTVRRGKTEKEDEMQEQQLLSDEKQCAEHIMLVDLGRNDVGKVSKPGSVKVEKLMNIERYSHVMHISSTVSGELDDHLQSWDALRAALPVGTVSGAPKVKAMELIDELEVTRRGPYSGGLGGISFDGDMDIALALRTIVFSTAPSHNTMYSYKDTERRREWVAHLQAGAGIVADSSPDDEQRECENKAAALARAIDLAESAFVDKE", "values": [
      {"measurement": "enzyme activity (anthranilate yield) compared with wild type", "setting": "[1]", "value": "improved enzyme activity over the wild type"}
    ]},
    {"molecule": "L530A: mutant OASA2 protein, substitution of alanine residue for leucine residue at position 530 (protein, UniProt Q9XJ29 50-606, looked up, variant L530A) Anthranilate synthase alpha …: CSAGKPEASAVINGSAAARAAEEDRRRFFEAAERGSGKGNLVPMWECIVSDHLTPVLAYRCLVPEDNMETPSFLFESVEQGPEGTTNVGRYSMVGAHPVMEVVAKEHKVTIMDHEKGKVTEQVVDDPMQIPRSMMEGWHPQQIDQLPDSFTGGWVGFFSYDTVRYVEKKKLPFSGAPQDDRNLPDVHLGLYDDVLVFDNVEKKVYVIHWVNLDRHATTEDAFQDGKSRLNLLLSKVHNSNVPKLSPGFVKLHTRQFGTPLNKSTMTSDEYKNAVMQAKEHIMAGDIFQIVLSQRFERRTYANPFEVYRALRIVNPSPYMAYVQARGCVLVASSPEILTRVRKGKIINRPLAGTVRRGKTEKEDEMQEQQLLSDEKQCAEHIMLVDLGRNDVGKVSKPGSVKVEKLMNIERYSHVMHISSTVSGELDDHLQSWDALRAALPVGTVSGAPKVKAMELIDELEVTRRGPYSGGLGGISFDGDMAIALALRTIVFSTAPSHNTMYSYKDTERRREWVAHLQAGAGIVADSSPDDEQRECENKAAALARAIDLAESAFVDKE", "values": [
      {"measurement": "enzyme activity (anthranilate yield) compared with wild type", "setting": "[1]", "value": "improved enzyme activity over the wild type"}
    ]},
    {"molecule": "Wt: wild type rice anthranilate synthase encoded by rice anthranilate synthase gene OASA2 (SEQ ID NO: 1) (protein, listed as Oryza sativa) MESIAAATFTPSRLAARPATPAAAAAPVRARAAVAAGGRRRTSRRGGVRCSAGKPEASAVINGSAAARAAEEDRRRFFEAAERGSGKGNLVPMWECIVSDHLTPVLAYRCLVPEDNMETPSFLFESVEQGPEGTTNVGRYSMVGAHPVMEVVAKEHKVTIMDHEKGKVTEQVVDDPMQIPRSMMEGWHPQQIDQLPDSFTGGWVGFFSYDTVRYVEKKKLPFSGAPQDDRNLPDVHLGLYDDVLVFDNVEKKVYVIHWVNLDRHATTEDAFQDGKSRLNLLLSKVHNSNVPKLSPGFVKLHTRQFGTPLNKSTMTSDEYKNAVMQAKEHIMAGDIFQIVLSQRFERRTYANPFEVYRALRIVNPSPYMAYVQARGCVLVASSPEILTRVRKGKIINRPLAGTVRRGKTEKEDEMQEQQLLSDEKQCAEHIMLVDLGRNDVGKVSKPGSVKVEKLMNIERYSHVMHISSTVSGELDDHLQSWDALRAALPVGTVSGAPKVKAMELIDELEVTRRGPYSGGLGGISFDGDMLIALALRTIVFSTAPSHNTMYSYKDTERRREWVAHLQAGAGIVADSSPDDEQRECENKAAALARAIDLAESAFVDKE", "values": [
      {"measurement": "Relative Ratio (enzyme activity compared with the wild type)", "setting": "[2]; Vmax relative to Wt", "value": 1.00, "unit": "fold"},
      {"measurement": "enzyme activity with tryptophan relative to 100% enzyme activity without tryptophan", "setting": "[2]; tryptophan 50 μM, FIG. 3", "value": "below 10%"},
      {"measurement": "Vmax", "setting": "[2]; with β subunit, 5 mM glutamine, 0.2 to 0.8 mM chorismate", "value": 215, "unit": "nmol/min/mg OASA2 Protein"},
      {"measurement": "Relative Amount", "setting": "[3]; free tryptophan relative to yeast expressing Wt OASA2 gene", "value": 1.0, "unit": "fold"},
      {"measurement": "Free Tryptophan Content", "setting": "[3]; yeast transformant, galactose medium without tryptophan, 30° C., 2 days", "value": "126 ± 7", "unit": "pmol/mg wet weight"}
    ]}
  ]
}
